Here are results for 1 molecule from patent publication US8440804B2, “Polypeptides having modulatory effects on cells” (Ecole Normale Superieure de Lyon, priority 2006, dated 2013).

The target of assay [1] is T1, CNA beta C-terminal fragment (Homo sapiens, UniProt P16298).
T1 construct: expressed in transfected cells; host or cells: yeast (MB210a transformed with library plasmid, mated with bait strain)
The assay is described as follows: Yeast two-hybrid assays of R5G42 mutants. The class given is binding. The following applies: plasmids pSH18-34, pJK103, pRB18-40. The procedure:
(§1) The capacity of R5G42 mutants having a one amino acid change as compared to R5G42 to bind CNA beta and gamma C-Terminal fragments (FIG. 3b) and NS5A-TP2 was tested in yeast two-hybrid assays. CNA beta and gamma C-Terminal fragments and NS5A-TP2 were cloned in three different vectors (pSH18-34, pJK103 and pRB18-40). These three plasmids differ from each other in the level of sensitivity of their promoter, pSH18-34 having the highest sensitivity and pRB18-40 having the lowest.
(§2) The inventors explored the ability of R5G42 mutants having a one amino acid change as compared to R5G42, to bind to CNA beta and gamma C-Terminal fragments (FIG. 3b) and to NS5A-TP2. To this end, they proceeded to yeast-two hybrid assays as in example 3. CNA beta and gamma C-Terminal fragments (FIG. 3b) and NS5A-TP2 were cloned in three different plasmids (pSH18-34, pJK103 and pRB18-40), which differed from each other in the level of sensitivity of their promoter to the bait/prey complex formation, pSH18-34 having the highest sensitivity and pRB18-40 having the lowest.

The target of assay [2] is T2, NS5A-TP2 (Homo sapiens, UniProt Q7Z4H3).
T2 construct: expressed in transfected cells; host or cells: yeast
T2 sequence (Q7Z4H3 1-204): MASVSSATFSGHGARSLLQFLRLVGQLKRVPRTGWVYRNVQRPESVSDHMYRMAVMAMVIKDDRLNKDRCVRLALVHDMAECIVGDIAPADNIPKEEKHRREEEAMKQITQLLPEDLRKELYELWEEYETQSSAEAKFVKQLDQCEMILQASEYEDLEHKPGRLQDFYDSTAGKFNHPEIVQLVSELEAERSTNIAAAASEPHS
The assay is described as follows: Yeast two-hybrid assays of R5G42 mutants. The class given is binding. The settings on record: plasmids pSH18-34, pJK103, pRB18-40. As for the experimental part: as §1, §2

In assay [3] the test system is CNA gamma C-terminal fragment. Put plainly: Yeast two-hybrid assays of R5G42 mutants. The class given is binding, human. The following applies: plasmids pSH18-34, pJK103, pRB18-40. As for the experimental part: as §1, §2
Sequence of CNA gamma C-terminal fragment (P48454 386-512 limits assumed): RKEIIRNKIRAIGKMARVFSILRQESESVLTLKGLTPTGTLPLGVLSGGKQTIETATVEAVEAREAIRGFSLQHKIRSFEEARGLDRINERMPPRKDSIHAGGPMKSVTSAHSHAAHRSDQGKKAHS
The target in assay [4] is T2, NS5A-TP2. Put plainly: Further yeast two-hybrid binding assays (higher sensitivity). An excerpt: FIG. 14. Specificity of aptamers according to the invention for CNA and NS5A-TP2 Interaction matrix between peptide aptamers R5G42, C2, C7, C8, N9, R5G44 and R5G52 with CNA constructs CNA1-CNA8 (A) CNA9-11 (B) and NS5A-TP2 (C). An interaction phenotype between CNA3/CNA 11, which both contain the Calmodulin binding domain (CaM) and the auto-inhibitory domain (Al) but not the CNB binding domain (CNB) and the aptamers R5G42, C2, C7, C8 and N9 is observed in a two-hybrid assay. R5G44 and R5G52 aptamers recognize neither the CNA fragments, nor NS5A-TP2. Only aptamers R5G42 and N9 recognize NS5A-TP2.
The inventors proceeded to further yeast two-hybrid binding assays between peptide aptamers R5G42 (SEQ ID 22), C2 (SEQ ID 23), C7 (SEQ ID 27), C8 (SEQ ID 28), N9 (SEQ ID 33), R5G44 and R5G52 with CNA constructs CNA1-CNA8 (FIG. 14A), CNA9-CNA11 (FIG. 14B) and NS5A-TP2 (SEQ ID 15) (FIG. 14C). The sensitivity of this yeast two-hybrid assay was higher than in the experiment reported above.

For assay [5], the system named is Raw1 cells (osteoclasts precursors). Put plainly: Raw cell differentiation assay (osteoclast differentiation). The class given is cell-based. The settings on record: 4 days post-transfection, absence of RANKL. An excerpt: Trx, CNA* and Peptide aptamers R5G42, C2, C7, C8 and N9 were transfected into RAW1 cells and left for four days in absence of the normal differentiation factor RANKL. CNA* is activated calcineurin A which elicits a robust differentiation response.
The inventors assessed the ability of some CNA-specific peptide aptamers to promote osteoclast differentiation via the activation of CNA. […] The differentiation state was then observed 4 days post-transfection.
Raw1 cells were transfected with the following plasmids: pCI-HA-Trx (negative control), pCI-HA CNA* (positive control for differentiation activation), pCI-HA R5G42, pCI-HA R5G42-C2, pCI-HA R5G42-C7, pCI-HA R5G42-C8 and pCI-HA R5G42-N9. The sequence of CNA* is the same as that of CNA8 (see FIG. 17, SEQ ID 42). The sequences of the R5G42 (SEQ ID 22), C2 (SEQ ID 23), C7 (SEQ ID 27), C8 (SEQ ID 28) and N9 (SEQ ID 33) aptamers is shown on FIG. 8.
One day before the transfection, Raw I cells were plated in 6-well dishes at 50 cell/mm^2. Transfection was performed with FuGene 6 Reagent (Roche) using 2 μg of each plasmid and following supplier recommendations.
8 h after transfection D-MEM was changed with α-MEM. In the control dishes α-MEM+50 ng/ml RANKL was added. After 2 days, medium was changed with a fresh medium. The differentiation state was then observed 4 days post-transfection.

B1: N9: R5G42 mutant having a one amino acid change (SEQ ID 33) (protein)
chain: MVKQIESKTAFQEALDAAGDKLVVVDFSAAWCGPSAVTFAVCALGPCKMIKPFFHSLSEKYSNVIFLEVDVDDCQDVASECEVKCMPTFQFFKKGQKVGEFSGANKEKLEATINELV
modifications: Aptamer R5G42 mutant N9
Turning to B1, the yeast two-hybrid interaction result in assay [1] is “not with the CNA beta and gamma C-terminal fragments”; with NS5A-TP2 [2], “shown to interact with NS5A-TP2”; in assay [3] it was “not with the CNA beta and gamma C-terminal fragments”. Besides, the “recognition of NS5A-TP2” value with NS5A-TP2 [4] is reported as “recognized NS5A-TP2”. Also, in assay [5], the osteoclast differentiation entry is reported as “no osteoclasts fully differentiated were detectable”.
